One block for each substance: values may come before it.
How the values were obtained:
[1] = biological target: chondroitin sulfate proteoglycan 4 (CSPG4) (human) (UniProt Q6UVK1); assay: flow cytometry (FACS), whole cell population of HS578T cells
[2] = biological target: chondroitin sulfate proteoglycan 4 (CSPG4) (human) (UniProt Q6UVK1); assay: flow cytometry (FACS), CD44+/CD24-/lo putative CSC subpopulation of MDA-MB-435 cells
[3] = biological target: chondroitin sulfate proteoglycan 4 (CSPG4) (human) (UniProt Q6UVK1); assay: flow cytometry (FACS), whole cell population of SUM-149 cells
[4] = biological target: chondroitin sulfate proteoglycan 4 (CSPG4) (human) (UniProt Q6UVK1); assay: flow cytometry (FACS), whole cell population of MDA-MB-231 cells
[5] = biological target: chondroitin sulfate proteoglycan 4 (CSPG4) (human) (UniProt Q6UVK1); assay: flow cytometry (FACS), whole cell population of SK-BR-3 cells
[6] = biological target: chondroitin sulfate proteoglycan 4 (CSPG4) (human) (UniProt Q6UVK1); assay: flow cytometry (FACS), CD44+/CD24-/lo putative CSC subpopulation of SUM-149 cells
[7] = biological target: chondroitin sulfate proteoglycan 4 (CSPG4) (human) (UniProt Q6UVK1); assay: cell-based or functional assay
[8] = biological target: chondroitin sulfate proteoglycan 4 (CSPG4) (human) (UniProt Q6UVK1); assay: flow cytometry (FACS), CD44+/CD24-/lo putative CSC subpopulation of HS578T cells
[9] = biological target: chondroitin sulfate proteoglycan 4 (CSPG4) (human) (UniProt Q6UVK1); assay: flow cytometry (FACS), CD44+/CD24-/lo putative CSC subpopulation of MCF-7 cells
[10] = biological target: chondroitin sulfate proteoglycan 4 (CSPG4) (human) (UniProt Q6UVK1); assay: flow cytometry (FACS), CD44+/CD24-/lo putative CSC subpopulation of MDA-MB-231 cells
[11] = biological target: chondroitin sulfate proteoglycan 4 (CSPG4) (human) (UniProt Q6UVK1); assay: flow cytometry (FACS), whole cell population of T-47D cells
[12] = biological target: chondroitin sulfate proteoglycan 4 (CSPG4) (human) (UniProt Q6UVK1); assay: flow cytometry (FACS), whole cell population of MDA-MB-435 cells
[13] = biological target: chondroitin sulfate proteoglycan 4 (CSPG4) (human) (UniProt Q6UVK1); assay: flow cytometry (FACS), whole cell population of MCF-7 cells
[14] = biological target: chondroitin sulfate proteoglycan 4 (CSPG4) (human) (UniProt Q6UVK1); assay: flow cytometry (FACS), whole cell population of HS578T cells; control antibody
[15] = biological target: chondroitin sulfate proteoglycan 4 (CSPG4) (human) (UniProt Q6UVK1); assay: flow cytometry (FACS), whole cell population of SK-BR-3 cells; control antibody
[16] = biological target: chondroitin sulfate proteoglycan 4 (CSPG4) (human) (UniProt Q6UVK1); assay: flow cytometry (FACS), CD44+/CD24-/lo putative CSC subpopulation of HS578T cells; control antibody
[17] = biological target: chondroitin sulfate proteoglycan 4 (CSPG4) (human) (UniProt Q6UVK1); assay: flow cytometry (FACS), whole cell population of MDA-MB-435 cells; control antibody
[18] = biological target: chondroitin sulfate proteoglycan 4 (CSPG4) (human) (UniProt Q6UVK1); assay: flow cytometry (FACS), whole cell population of MDA-MB-231 cells; control antibody
[19] = biological target: chondroitin sulfate proteoglycan 4 (CSPG4) (human) (UniProt Q6UVK1); assay: flow cytometry (FACS), CD44+/CD24-/lo putative CSC subpopulation of MCF-7 cells; control antibody
[20] = biological target: chondroitin sulfate proteoglycan 4 (CSPG4) (human) (UniProt Q6UVK1); assay: flow cytometry (FACS), whole cell population of SUM-149 cells; control antibody
[21] = biological target: chondroitin sulfate proteoglycan 4 (CSPG4) (human) (UniProt Q6UVK1); assay: flow cytometry (FACS), CD44+/CD24-/lo putative CSC subpopulation of SUM-149 cells; control antibody
[22] = biological target: chondroitin sulfate proteoglycan 4 (CSPG4) (human) (UniProt Q6UVK1); assay: flow cytometry (FACS), whole cell population of MCF-7 cells; control antibody
[23] = biological target: chondroitin sulfate proteoglycan 4 (CSPG4) (human) (UniProt Q6UVK1); assay: flow cytometry (FACS), CD44+/CD24-/lo putative CSC subpopulation of MDA-MB-435 cells; control antibody
[24] = biological target: chondroitin sulfate proteoglycan 4 (CSPG4) (human) (UniProt Q6UVK1); assay: flow cytometry (FACS), whole cell population of T-47D cells; control antibody
[25] = biological target: chondroitin sulfate proteoglycan 4 (CSPG4) (human) (UniProt Q6UVK1); assay: flow cytometry (FACS), CD44+/CD24-/lo putative CSC subpopulation of MDA-MB-231 cells; control antibody

Chain of UniProt Q6UVK1 (Q6UVK1 30-2322): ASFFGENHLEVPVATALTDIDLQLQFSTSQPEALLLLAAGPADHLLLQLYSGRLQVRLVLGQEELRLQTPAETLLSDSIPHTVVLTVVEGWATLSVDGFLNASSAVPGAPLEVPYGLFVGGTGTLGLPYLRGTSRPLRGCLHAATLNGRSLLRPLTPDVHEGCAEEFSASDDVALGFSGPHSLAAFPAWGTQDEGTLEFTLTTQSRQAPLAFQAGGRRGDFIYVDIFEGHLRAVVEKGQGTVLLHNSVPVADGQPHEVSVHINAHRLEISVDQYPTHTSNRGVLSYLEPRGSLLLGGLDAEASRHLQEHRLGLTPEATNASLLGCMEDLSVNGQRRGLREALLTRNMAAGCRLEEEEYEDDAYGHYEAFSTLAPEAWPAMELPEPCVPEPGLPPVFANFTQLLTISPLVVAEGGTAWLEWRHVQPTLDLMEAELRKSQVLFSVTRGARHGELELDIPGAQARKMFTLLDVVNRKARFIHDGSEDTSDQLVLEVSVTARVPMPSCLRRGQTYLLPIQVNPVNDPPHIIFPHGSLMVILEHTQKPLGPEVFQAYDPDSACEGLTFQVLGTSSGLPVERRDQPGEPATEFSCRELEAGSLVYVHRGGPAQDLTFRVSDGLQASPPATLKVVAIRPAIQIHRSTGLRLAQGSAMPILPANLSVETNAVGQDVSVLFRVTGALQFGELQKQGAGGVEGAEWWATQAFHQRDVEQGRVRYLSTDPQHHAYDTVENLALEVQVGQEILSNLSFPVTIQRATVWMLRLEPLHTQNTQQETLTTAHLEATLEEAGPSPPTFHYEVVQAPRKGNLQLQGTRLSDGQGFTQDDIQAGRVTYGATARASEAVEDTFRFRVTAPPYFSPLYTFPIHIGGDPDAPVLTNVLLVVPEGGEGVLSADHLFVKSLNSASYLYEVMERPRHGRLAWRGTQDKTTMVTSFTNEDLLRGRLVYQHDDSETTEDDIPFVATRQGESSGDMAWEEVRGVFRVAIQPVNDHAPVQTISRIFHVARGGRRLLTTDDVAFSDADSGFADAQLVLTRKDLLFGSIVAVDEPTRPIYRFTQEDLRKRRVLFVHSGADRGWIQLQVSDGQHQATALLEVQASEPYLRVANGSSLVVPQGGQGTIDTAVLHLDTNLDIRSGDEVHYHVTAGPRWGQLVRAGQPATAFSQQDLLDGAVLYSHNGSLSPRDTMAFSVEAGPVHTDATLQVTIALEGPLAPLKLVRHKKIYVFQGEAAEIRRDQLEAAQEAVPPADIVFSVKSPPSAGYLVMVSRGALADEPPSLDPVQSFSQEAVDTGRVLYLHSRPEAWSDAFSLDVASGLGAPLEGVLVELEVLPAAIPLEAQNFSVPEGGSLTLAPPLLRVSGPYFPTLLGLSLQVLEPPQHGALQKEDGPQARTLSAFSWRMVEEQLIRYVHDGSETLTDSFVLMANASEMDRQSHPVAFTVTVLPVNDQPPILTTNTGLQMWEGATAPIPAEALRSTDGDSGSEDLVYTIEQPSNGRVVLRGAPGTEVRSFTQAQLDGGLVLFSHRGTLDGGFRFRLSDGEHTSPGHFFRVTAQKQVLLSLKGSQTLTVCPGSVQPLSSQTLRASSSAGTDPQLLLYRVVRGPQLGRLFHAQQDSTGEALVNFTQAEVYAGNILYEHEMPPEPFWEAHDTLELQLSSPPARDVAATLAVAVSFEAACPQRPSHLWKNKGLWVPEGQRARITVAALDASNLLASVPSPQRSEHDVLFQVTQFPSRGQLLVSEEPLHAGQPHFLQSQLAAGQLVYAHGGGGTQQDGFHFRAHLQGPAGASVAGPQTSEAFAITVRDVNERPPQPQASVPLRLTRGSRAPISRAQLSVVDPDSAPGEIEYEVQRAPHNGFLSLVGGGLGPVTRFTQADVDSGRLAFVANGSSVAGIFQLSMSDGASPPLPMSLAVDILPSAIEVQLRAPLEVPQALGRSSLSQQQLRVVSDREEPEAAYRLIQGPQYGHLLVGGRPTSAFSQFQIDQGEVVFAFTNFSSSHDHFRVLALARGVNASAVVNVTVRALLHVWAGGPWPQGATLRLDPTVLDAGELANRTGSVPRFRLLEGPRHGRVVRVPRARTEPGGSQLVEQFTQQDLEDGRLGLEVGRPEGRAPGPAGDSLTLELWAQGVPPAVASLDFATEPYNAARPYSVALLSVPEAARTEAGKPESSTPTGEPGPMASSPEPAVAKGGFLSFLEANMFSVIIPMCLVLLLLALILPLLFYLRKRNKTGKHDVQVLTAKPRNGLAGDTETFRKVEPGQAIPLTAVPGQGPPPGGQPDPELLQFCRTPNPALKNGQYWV

Substance: CSPG4-specific mAb 225.28 (antibody)
% of stained cells [1]: 66.7%
MFI [1]: 379
% of stained cells [2]: 99.7%
MFI [2]: 694
% of stained cells [3]: 93.4%
MFI [3]: 193
% of stained cells [4]: 83.8%
MFI [4]: 53.8
% of stained cells [5]: 1.5%
MFI [5]: 4.6
% of stained cells [6]: 95.7%
MFI [6]: 179
inhibition of adhesion of cells to fibronectin [7]: 45%
inhibition of cell growth in a 3D matrix setting (TNBC cells) [7]: 70%
inhibition of motility towards fibronectin in a Boyden chamber assay [7]: 56%
% of stained cells [8]: 71.7%
MFI [8]: 196
% of stained cells [9]: 11.4%
MFI [9]: 9.8
% of stained cells [10]: 85.7%
MFI [10]: 53.8
% of stained cells [11]: 13%
MFI [11]: 3.8
% of stained cells [12]: 96.1%
MFI [12]: 714
% of stained cells [13]: 8.5%
MFI [13]: 12

Substance: CSPG4-specific mAb TP61.5 (antibody)
% of stained cells [1]: 92.3%
MFI [1]: 109
% of stained cells [2]: 98%
MFI [2]: 93
% of stained cells [3]: 51.1%
MFI [3]: 19.6
% of stained cells [4]: 68.3%
MFI [4]: 86.3
% of stained cells [5]: 0.1%
MFI [5]: 2.4
% of stained cells [6]: 51.2%
MFI [6]: 10.5
% of stained cells [8]: 72.4%
MFI [8]: 34.4
% of stained cells [9]: 9.9%
MFI [9]: 3.2
% of stained cells [10]: 75.6%
MFI [10]: 33.6
% of stained cells [11]: 0%
MFI [11]: 2.3
% of stained cells [12]: 82.4%
MFI [12]: 61.1
% of stained cells [13]: 3.5%
MFI [13]: 7.8

Substance: Isotype control (antibody)
% of stained cells [14]: 0.4%
MFI [14]: 13
MFI [15]: 4.3
% of stained cells [16]: 0.5%
MFI [16]: 10
% of stained cells [17]: 0.7%
MFI [17]: 9.1
% of stained cells [18]: 0.3%
MFI [18]: 9.8
% of stained cells [19]: 0.6%
MFI [19]: 1.8
% of stained cells [20]: 2%
MFI [20]: 2.7
% of stained cells [21]: 0.5%
% of stained cells [22]: 0.7%
MFI [22]: 6.2
% of stained cells [23]: 0.5%
MFI [23]: 3
% of stained cells [24]: 6.2%
MFI [24]: 10.4
% of stained cells [25]: 0.4%
MFI [25]: 3.7

Other lines, results leading:

% of stained cells [1]: 61.4%
MFI [1]: 39.2
% of stained cells [2]: 96.4%
MFI [2]: 50.5
% of stained cells [3]: 1.3%
MFI [3]: 2.8
% of stained cells [4]: 91.2%
MFI [4]: 154
% of stained cells [5]: 0%
MFI [5]: 2
% of stained cells [6]: 3%
MFI [6]: 3.1
% of stained cells [8]: 33.9%
MFI [8]: 17.6
% of stained cells [9]: 2.6%
MFI [9]: 2.4
% of stained cells [10]: 16.6%
MFI [10]: 6.9
% of stained cells [11]: 0.5%
MFI [11]: 3.4
% of stained cells [12]: 93.5%
MFI [12]: 79.2
% of stained cells [13]: 17.4%
MFI [13]: 13.8
Substance: CSPG4-specific mAb 763.74 (antibody)

% of stained cells [1]: 52.6%
MFI [1]: 34.2
% of stained cells [2]: 91.9%
MFI [2]: 40.4
% of stained cells [3]: 0.9%
MFI [3]: 2.8
% of stained cells [4]: 88.4%
MFI [4]: 142
% of stained cells [5]: 0.1%
MFI [5]: 2.1
% of stained cells [6]: 1.4%
MFI [6]: 2.7
% of stained cells [8]: 17.6%
MFI [8]: 14.5
% of stained cells [9]: 2.5%
MFI [9]: 2.5
% of stained cells [10]: 12%
MFI [10]: 6.1
% of stained cells [11]: 0.3%
MFI [11]: 2.7
% of stained cells [12]: 86.8%
MFI [12]: 63.3
% of stained cells [13]: 13.8%
MFI [13]: 11.9
Substance: CSPG4-specific mAb TP41.2 (antibody)

Source: patent US20110171229A1
